This test deals with T1, GSTPCNA (S. cerevisiae, UniProt P15873 1-258).
T1 construct: PCNA of S. cerevisiae; not shown: GST, N-terminal, kept
T1 sequence (looked up): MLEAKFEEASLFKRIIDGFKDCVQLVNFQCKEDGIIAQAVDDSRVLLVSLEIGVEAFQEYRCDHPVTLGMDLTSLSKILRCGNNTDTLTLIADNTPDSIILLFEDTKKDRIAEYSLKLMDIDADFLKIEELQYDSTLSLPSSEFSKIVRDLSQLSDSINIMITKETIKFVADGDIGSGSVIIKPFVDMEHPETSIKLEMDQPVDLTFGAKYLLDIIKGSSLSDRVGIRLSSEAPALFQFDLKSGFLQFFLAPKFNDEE
Kind of test: pull-down; GST-tagged protein immobilised on glutathione Sepharose (1 h, 4°C), binding partner added for 90 min at 4°C in phosphate-buffered saline with 0.05% Triton X-100; three washes; anti-His western blot. The conditions noted are these: both partners purified. (In general: Immunoblotting shows a protein as a band on a membrane.)

Residue numbers refer to the chain shown, from its start. Numbers in names are those of the source.

B1: HisRad18(1-255) (domain or fragment, S. cerevisiae, UniProt P10862 1-255, looked up)
chain: MDHQITTASDFTTTSIPSLYQLDTLLRCHICKDFLKVPVLTPCGHTFCSLCIRTHLNNQPNCPLCLFEFRESLLRSEFLVSEIIQSYTSLRSSLLDALRIPKPTPVPENEEVPGPENSSWIELISESESDSVNAADDDLQIVATSERKLAKRSMTDILPLSSKPSKRNFAMFRSERIKKKSKPNEQMAQCPICQQFYPLKALEKTHLDECLTLQSLGKKPKISTTFPTESNPHNKSSSRFKVRTPEVDKSSCGET
notes: detected by anti-His western blot; not shown: His6, N-terminal, kept
For the molecule B1, the binding result is reported as “binds”.

B2: HisRad18(1-255) SIM* (L139A, I141A, V142A) (domain or fragment, S. cerevisiae, UniProt P10862 1-255, looked up)
chain: B1 chain with L139A, I141A, V142A
notes: also called SIM* mutant; not shown: His6, N-terminal, kept
For the molecule B2, the binding result is “binds”.

Source of the values: PMC3526273, “A SUMO-interacting motif activates budding yeast ubiquitin ligase Rad18 towards SUMO-modified PCNA” (Nucleic Acids Research, 2012).
